The results in this text go back to the Immune Epitope Database (IEDB).

Among the targets are HLA-A*24:03; HLA-A*01:01; HLA-A*02:01; HLA-A*03:01; HLA-A*11:01; HLA-A*26:01; HLA-A*31:01; HLA-A*69:01; HLA-B*07:02; HLA-B*08:01; HLA-B*15:01; HLA-B*27:05; HLA-B*35:01; HLA-B*40:01; HLA-B*44:02; HLA-B*58:01; HLA-A*02:12; HLA-A*02:19; HLA-A*68:02; HLA-B*18:01; HLA-B*27:03; HLA-B*46:01; HLA-B*51:01; HLA-B*57:01; HLA-C*03:03.
Common to all, as to assay: IEDB peptide-MHC binding, purified MHC/direct/fluorescence; filed as Kd, often an IC50 or EC50 that approximates it; ≥ and ≤ were set here for values at or beyond the usual limits of such assays
The next assay addresses HLA-C*14:02. As to conditions: source organism: Mycobacterium tuberculosis str. Haarlem.
The target of a further assay is HLA-C*15:02. The following applies: source organism: Mycobacterium tuberculosis str. Haarlem.
Another assay has as its target HLA-A*02:03. The following applies: source organism: Vibrio cholerae O139.
The target of a further assay is HLA-A*02:11. The following applies: source organism: Vibrio cholerae O139.
The target in a further assay is HLA-A*02:16. As to conditions: source organism: Vibrio cholerae O139.
The next assay deals with HLA-A*23:01. The following applies: source organism: Vibrio cholerae O139.
For another assay, the target named is HLA-A*29:02. The following applies: source organism: Vibrio cholerae O139.
The target of the next assay is HLA-B*15:17. The following applies: source organism: Vibrio cholerae O139.
The next assay has as its target HLA-B*39:01. The following applies: source organism: Cryptosporidium parvum Iowa II.
[1] abbreviates: source organism: Vibrio cholerae.
Setting [2] is: source organism: Vibrio cholerae O139.
Where [3] appears, read: source organism: Escherichia coli O157:H7.
The mark [4] stands for this setting: source organism: Salmonella enterica subsp. enterica serovar Typhimurium.
[5] abbreviates: source organism: Yersinia pestis.
[6] abbreviates: source organism: Cryptosporidium parvum Iowa II.

pKd: −log10 of the molar value.

On to RYVGLYLPF, for which the negative-log Kd (pKd) with HLA-A*24:03 (source organism: Mycobacterium tuberculosis) was 9.70; with HLA-C*14:02, ≥ 9.00; with HLA-C*15:02, ≤ 4.70.
As for DTDISQLHH, the pKd with HLA-A*01:01 (setting [1]) was 6.45; with HLA-A*02:01 (setting [1]), ≤ 4.70; with HLA-A*03:01 (setting [1]) it was ≤ 4.70; in the assay with HLA-A*11:01 (setting [1]), ≤ 4.70; with HLA-A*24:03 (setting [1]), ≤ 4.70; with HLA-A*26:01 (setting [1]) it was ≤ 4.70. For the same sequence, the pKd in the assay with HLA-A*31:01 (setting [1]), with HLA-A*69:01 (setting [1]), with HLA-B*07:02 (setting [1]), in the assay with HLA-B*08:01 (setting [1]), with HLA-B*15:01 (setting [1]) and in the assay with HLA-B*27:05 (setting [1]) was ≤ 4.70 in each case. For the same sequence, the pKd with HLA-B*35:01 (setting [1]) is 6.27; with HLA-B*40:01 (setting [1]), ≤ 4.70; in the assay with HLA-B*44:02 (setting [1]), ≤ 4.70; in the assay with HLA-B*58:01 (setting [1]) it was 5.57.
On to EKDSNHNVL, for which the pKd with HLA-A*02:01 (setting [2]), with HLA-A*02:03, in the assay with HLA-A*02:11, with HLA-A*02:12 (setting [2]), with HLA-A*02:16 and with HLA-A*02:19 (setting [2]) was ≤ 4.70 throughout. The pKd with HLA-A*03:01 (setting [2]), in the assay with HLA-A*23:01, in the assay with HLA-A*24:03 (setting [2]), with HLA-A*26:01 (setting [2]), with HLA-A*29:02 and in the assay with HLA-A*68:02 (setting [2]) was ≤ 4.70 throughout. For the same sequence, the pKd with HLA-A*69:01 (setting [2]), in the assay with HLA-B*15:01 (setting [2]), with HLA-B*15:17, with HLA-B*18:01 (setting [2]), with HLA-B*27:03 (setting [2]) and with HLA-B*46:01 (setting [2]) was ≤ 4.70 throughout. Also, the pKd in the assay with HLA-B*51:01 (setting [2]) and in the assay with HLA-B*57:01 (setting [2]) was ≤ 4.70 in each case.
In turn, MAVGVVLAL gave a pKd with HLA-C*03:03 (source organism: Mycobacterium tuberculosis variant bovis BCG str. Pasteur 1173P2) of 7.62.
For the sequence VVPLYDTPL, the pKd with HLA-A*01:01 (setting [3]), with HLA-A*02:01 (setting [3]), with HLA-A*03:01 (setting [3]), with HLA-A*11:01 (setting [3]), in the assay with HLA-A*24:03 (setting [3]) and in the assay with HLA-A*26:01 (setting [3]) was ≤ 4.70 each time. In addition, the pKd was ≤ 4.70 in the assay with HLA-A*31:01 (setting [3]); 5.05 with HLA-B*07:02 (setting [4]); ≤ 4.70 with HLA-B*08:01 (setting [3]); 6.00 in the assay with HLA-B*15:01 (setting [4]); ≤ 4.70 with HLA-B*27:05 (setting [3]); 6.50 in the assay with HLA-B*35:01 (setting [4]). Further, the pKd with HLA-B*40:01 (setting [3]), with HLA-B*44:02 (setting [3]) and with HLA-B*58:01 (setting [3]) was ≤ 4.70 each time.
Regarding TMPELAWAV, the pKd in the assay with HLA-A*01:01 (setting [5]) is ≤ 4.70; with HLA-A*02:01 (setting [5]), 7.80; with HLA-A*03:01 (setting [5]) it was ≤ 4.70; with HLA-A*11:01 (setting [5]) it was ≤ 4.70; with HLA-A*26:01 (setting [5]), ≤ 4.70; in the assay with HLA-A*31:01 (setting [5]) it was ≤ 4.70. Also, the pKd with HLA-A*69:01 (setting [5]) is 8.11; in the assay with HLA-B*07:02 (setting [5]) it was ≤ 4.70; with HLA-B*08:01 (setting [5]), 4.82; in the assay with HLA-B*15:01 (setting [5]), ≤ 4.70; with HLA-B*27:05 (setting [5]), ≤ 4.70; with HLA-B*35:01 (setting [5]) it was 6.38. Besides, the pKd in the assay with HLA-B*40:01 (setting [5]), in the assay with HLA-B*44:02 (setting [5]) and with HLA-B*58:01 (setting [5]) was ≤ 4.70 throughout.
As for YLAKLFLDH, the pKd with HLA-A*02:12 (setting [6]), with HLA-A*02:19 (setting [6]), with HLA-A*26:01 (setting [6]), with HLA-A*68:02 (setting [6]), with HLA-A*69:01 (setting [6]) and with HLA-B*18:01 (setting [6]) was ≤ 4.70 in each case. Besides, the pKd with HLA-B*27:03 (setting [6]), with HLA-B*39:01, with HLA-B*46:01 (setting [6]), in the assay with HLA-B*51:01 (setting [6]) and with HLA-B*57:01 (setting [6]) was ≤ 4.70 throughout.
With KLDSGAFTV, the pKd with HLA-C*03:03 (source organism: Mycobacterium tuberculosis str. Haarlem) is ≤ 4.70.
On to YFRNSGMTY, for which the pKd with HLA-A*01:01 (setting [1]) was 5.84; with HLA-A*02:01 (setting [1]), ≤ 4.70; in the assay with HLA-A*03:01 (setting [1]), ≤ 4.70; in the assay with HLA-A*11:01 (setting [1]) it was ≤ 4.70; in the assay with HLA-A*26:01 (setting [1]), ≤ 4.70; with HLA-A*31:01 (setting [1]) it was ≤ 4.70. Further, the pKd is ≤ 4.70 with HLA-A*69:01 (setting [1]); ≤ 4.70 with HLA-B*07:02 (setting [1]); ≤ 4.70 with HLA-B*08:01 (setting [1]); 7.07 with HLA-B*15:01 (setting [1]); ≤ 4.70 with HLA-B*27:05 (setting [1]); 6.96 with HLA-B*35:01 (setting [1]). The pKd in the assay with HLA-B*40:01 (setting [1]), with HLA-B*44:02 (setting [1]) and with HLA-B*58:01 (setting [1]) was ≤ 4.70 in each case.

The pKd is the Kd on a negative log10 scale, so that one unit is a factor of ten.
